Where a chain is given by its changes, count along the chain named.
B1: 51S1, 72A (protein, listed as Rattus norvegicus)
chain: AFDGTWKVDRNENYEKFMEKMGINVVKRKLGAHDNLKLTITQEGNKFTVKSSSNFRNIDVVFELGVDFAYSAADGTELTGTWTMEGNKLVGKFKRVDNGKELIAVREISGNELIQTYTYEGVEAKRIFKKE
modifications: PEPTIDE (1)...(131) wild-type rat intestinal fatty acid binding protein
B2: 55I1, 72A (protein, listed as Rattus norvegicus)
chain: B1 chain with S51E, F55I
modifications: PEPTIDE (1)...(131) wild-type rat intestinal fatty acid binding protein
B3: 55N1, 72A (protein, listed as Rattus norvegicus)
chain: B1 chain with S51E, F55N
modifications: PEPTIDE (1)...(131) wild-type rat intestinal fatty acid binding protein
B4: 55H2, 72A (protein, listed as Rattus norvegicus)
chain: B1 chain with S51E, F55H
modifications: PEPTIDE (1)...(131) wild-type rat intestinal fatty acid binding protein
B5: 55K1, 72A (protein, listed as Rattus norvegicus)
chain: B1 chain with S51E, F55K
modifications: PEPTIDE (1)...(131) wild-type rat intestinal fatty acid binding protein
B6: 55Q1, 72A (protein, listed as Rattus norvegicus)
chain: B1 chain with S51E, F55Q
modifications: PEPTIDE (1)...(131) wild-type rat intestinal fatty acid binding protein
B7: 55M1, 72A (protein, listed as Rattus norvegicus)
chain: B1 chain with S51E, F55M
modifications: PEPTIDE (1)...(131) wild-type rat intestinal fatty acid binding protein
B8: 51V3, 72A (protein, listed as Rattus norvegicus)
chain: B1 chain with S51V
modifications: PEPTIDE (1)...(131) wild-type rat intestinal fatty acid binding protein
B9: 51W2, 72A (protein, listed as Rattus norvegicus)
chain: B1 chain with S51W
modifications: PEPTIDE (1)...(131) wild-type rat intestinal fatty acid binding protein
B10: 55G1, 72A (protein, listed as Rattus norvegicus)
chain: B1 chain with S51E, F55G
modifications: PEPTIDE (1)...(131) wild-type rat intestinal fatty acid binding protein
B11: 55E, 72A (protein, listed as Rattus norvegicus)
chain: B1 chain with S51E, F55E
modifications: PEPTIDE (1)...(131) wild-type rat intestinal fatty acid binding protein
B12: 55P1, 72A (protein, listed as Rattus norvegicus)
chain: B1 chain with S51E, F55P
modifications: PEPTIDE (1)...(131) wild-type rat intestinal fatty acid binding protein
B13: 51Y1, 72A (protein, listed as Rattus norvegicus)
chain: B1 chain with S51Y
modifications: PEPTIDE (1)...(131) wild-type rat intestinal fatty acid binding protein
B14: 55A1, 72A (protein, listed as Rattus norvegicus)
chain: B1 chain with S51E, F55A
modifications: PEPTIDE (1)...(131) wild-type rat intestinal fatty acid binding protein
B15: 55R1, 72A (protein, listed as Rattus norvegicus)
chain: B1 chain with S51E, F55R
modifications: PEPTIDE (1)...(131) wild-type rat intestinal fatty acid binding protein
B16: 55D1, 72A (protein, listed as Rattus norvegicus)
chain: B1 chain with S51E, F55D
modifications: PEPTIDE (1)...(131) wild-type rat intestinal fatty acid binding protein
B17: 55L1, 72A (protein, listed as Rattus norvegicus)
chain: B1 chain with S51E, F55L
modifications: PEPTIDE (1)...(131) wild-type rat intestinal fatty acid binding protein
B18: 51T3, 72A (protein, listed as Rattus norvegicus)
chain: B1 chain with S51T
modifications: PEPTIDE (1)...(131) wild-type rat intestinal fatty acid binding protein

Test: Probe fluorescence ratio response to arachidonic acid relative to ADIFAB2
Assay type: binding
Details: Arachidonic acid; response relative to ADIFAB2
Procedure, shortened: (§1)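 Fluorescently labeled rat intestinal FABP variants were read at two emission wavelengths, near the unbound maximum (about 420 to 480 nm) and the FFA-bound maximum (about 495 to 580 nm). R = Fλ1/Fλ2 after subtracting probe-free intensity; ΔR = R+agent − R0, normalized to ADIFAB2 (rI-FABP-L72A).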

Point of comparison: B9, “DR/DR AA” value 1.69. Against it:
- B1 — lower, 1.64
- B2 — lower, 1.08
- B3 — lower, 0.34
- B4 — lower, 0.36
- B5 — lower, 0.32
- B6 — lower, 0.60
- B7 — lower, 1.40
- B8 — lower, 1.52
- B10 — lower, 0.19
- B11 — lower, 0.21
- B12 — lower, 1.01
- B13 — lower, 1.38
- B14 — lower, 0.33
- B15 — lower, 0.40
- B16 — lower, 0.11
- B17 — lower, 0.86
- B18 — lower, 1.60

Test: Probe fluorescence ratio response to palmitic acid relative to ADIFAB2
Assay type: binding
Details: response relative to ADIFAB2
Procedure, shortened: as §1

Point of comparison: B14, “DR/DR PA” value 0.28. Against it:
- B1 — higher, 0.80
- B2 — higher, 0.77
- B3 — lower, 0.22
- B4 — lower, 0.26
- B5 — lower, 0.27
- B6 — higher, 0.43
- B7 — higher, 0.84
- B8 — higher, 0.73
- B9 — higher, 0.80
- B10 — lower, 0.18
- B11 — lower, 0.17
- B12 — higher, 0.54
- B13 — higher, 0.72
- B15 — higher, 0.30
- B16 — lower, 0.10
- B17 — higher, 0.63
- B18 — higher, 0.71

Test: Probe fluorescence ratio response to linoleic acid relative to ADIFAB2
Assay type: binding
Details: response relative to ADIFAB2
Procedure, shortened: as §1

Point of comparison: B18, “DR/DR LA” value 1.65. Against it:
- B1 — higher, 1.78
- B2 — lower, 0.83
- B3 — lower, 0.29
- B4 — lower, 0.38
- B5 — lower, 0.34
- B6 — lower, 0.47
- B7 — lower, 0.97
- B8 — lower, 1.64
- B9 — higher, 1.77
- B10 — lower, 0.22
- B11 — lower, 0.21
- B12 — lower, 1.05
- B13 — lower, 1.50
- B14 — lower, 0.34
- B15 — lower, 0.41
- B16 — lower, 0.12
- B17 — lower, 0.71

Test: Probe fluorescence ratio response to linolenic acid relative to ADIFAB2
Assay type: binding
Details: response relative to ADIFAB2
Procedure, shortened: as §1

Point of comparison: B18, “DR/DR LNA” value 1.60. Against it:
- B1 — higher, 1.66
- B2 — lower, 0.89
- B3 — lower, 0.30
- B4 — lower, 0.32
- B5 — lower, 0.35
- B6 — lower, 0.49
- B7 — lower, 1.42
- B8 — lower, 1.53
- B9 — higher, 1.70
- B10 — lower, 0.23
- B11 — lower, 0.21
- B12 — lower, 0.96
- B13 — lower, 1.44
- B14 — lower, 0.36
- B15 — lower, 0.37
- B16 — lower, 0.12
- B17 — lower, 0.72

Test: Probe fluorescence ratio response to oleic acid relative to ADIFAB2
Assay type: binding
Details: response relative to ADIFAB2
Procedure, shortened: as §1

Point of comparison: B3, “DR/DR OA” value 0.27. Against it:
- B1 — higher, 1.61
- B2 — higher, 0.90
- B4 — the same, 0.27
- B5 — higher, 0.30
- B6 — higher, 0.54
- B7 — higher, 1.41
- B8 — higher, 1.43
- B9 — higher, 1.55
- B10 — lower, 0.19
- B11 — lower, 0.21
- B12 — higher, 0.93
- B13 — higher, 1.38
- B14 — higher, 0.30
- B15 — higher, 0.39
- B16 — lower, 0.10
- B17 — higher, 0.82
- B18 — higher, 1.44

Reference: patent US20060257938A1, “Method of screening for drugs that block ligand binding to a lipid binding protein” (priority 2005, published 2006)
